From patent publication US6677436
Positions count from the first letter of the chain named.

B1: H chain humanized version a/L chain chimeric antibody (antibody, V domains shown)
VH: QVQLLESGAVLARPGTSVKISCKASGFNIKDYYMHWVKQRPGQGLEWIGGNDPANGHSMYDPKFQGRAKLTAATSASIAYLEFSSLTNEDSAVYYCARDSGYAMDYWGQGTLVTVSS
VL: DIKMTQSPSSMYASLGERVTITCKASQDIKSFLSWYQQKPWKSPKTLIYYATSLADGVPSRFSGSGSGQDYSLTINNLESDDTATYYCLQHGESPYTFGGGTKLEIK
notes: Expressed from vector N5KG4P (IgG4-type, human Cgamma4 and Ckappa); also called a-ch; hHva-chLv/N5KG4P
B2: H chain humanized version c/L chain chimeric antibody (antibody, V domains shown)
VH: QVQLLESGAVLARPGTSVKISCKASGFNIKDYYMHWVKQRPGQGLEWIGGNDPANGHSMYDPKFQGRVTMLVDTSKNQFSLRLSSVTAADTAVYYCARDSGYAMDYWGQGTLVTVSS
VL: B1 VL
notes: Expressed from vector N5KG4P (IgG4-type, human Cgamma4 and Ckappa); also called c-ch; hHvc-chLv/N5KG4P
B3: H chain chimeric/L chain humanized version b antibody (antibody, V domains shown)
VH: EVQLQQSGTNLVRPGALVKLSCKGSGFNIKDYYMHWVKQRPEQGLEWIGGNDPANGHSMYDPKFQGKASITADTSSNTAYLQLSSLTSEDTAVYFCARDSGYAMDYWGQGTSVTVSS
VL: DIQMTQSPSSLSASVGDRVTITCKASQDIKSFLSWYQQKPGKAPKLLIYYATSLADGVPSRFSGSGSGTDYTLTISSLQPEDFATYYCLQHGESPYTFGGGTKVEIK
notes: Expressed from vector N5KG4P (IgG4-type, human Cgamma4 and Ckappa); also called ch-b; chHv-hLvb/N5KG4P
B4: H chain humanized version a/L chain humanized version a antibody (antibody, V domains shown)
VH: B1 VH
VL: B3 VL with Y71F
notes: Expressed from vector N5KG4P (IgG4-type, human Cgamma4 and Ckappa); also called hHva-hLva/N5KG4P
B5: H chain humanized version b/L chain chimeric antibody (antibody, V domains shown)
VH: QVQLLESGAVLARPGTSVKISCKASGFNIKDYYMHWVKQRPGQGLEWIGGNDPANGHSMYDPKFQGRVTITADTSTNTAYMELSSLRSEDTAIYYCARDSGYAMDYWGQGTLVTVSS
VL: B1 VL
notes: Expressed from vector N5KG4P (IgG4-type, human Cgamma4 and Ckappa); also called b-ch; hHvb-chLv/N5KG4P
B6: H chain humanized version b3/L chain humanized version b antibody (antibody, V domains shown)
VH: B5 VH with K38R, R40A
VL: B3 VL
notes: Expressed from vector N5KG4P (IgG4-type, human Cgamma4 and Ckappa); also called b3-b; hHvb3-hLvb/N5KG4P
B7: H chain chimeric/L chain humanized version a antibody (antibody, V domains shown)
VH: B3 VH
VL: B3 VL with Y71F
notes: Expressed from vector N5KG4P (IgG4-type, human Cgamma4 and Ckappa); also called chHv-hLva/N5KG4P
B8: H chain humanized version g/L chain humanized version b antibody (antibody, V domains shown)
VH: B5 VH with R67K, V68A, I70L, T74E, T76S, N77S, E82Q, T91S, I93V, Y95S
VL: B3 VL
notes: Expressed from vector N5KG4P (IgG4-type, human Cgamma4 and Ckappa); also called g-b; hHvg-hLvb/N5KG4P
B9: H chain humanized version b/L chain humanized version c antibody (antibody, V domains shown)
VH: B5 VH
VL: B3 VL with F83I
notes: Humanized antibodies were expressed from vector N5KG4P (IgG4-type); the construction of the b-c plasmid itself is not described; also called b-c
B10: H chain humanized version d3/L chain humanized version b antibody (antibody, V domains shown)
VH: B5 VH with K38R, R40A, T74E, N77S, T91S, I93V, Y95F
VL: B3 VL
notes: Expressed from vector N5KG4P (IgG4-type, human Cgamma4 and Ckappa); also called d3-b; hHvd3-hLvb/N5KG4P
B11: H chain humanized version i/L chain chimeric antibody (antibody, V domains shown)
VH: B5 VH with N77S, A79V, Y80F, I93V
VL: B1 VL
notes: Expressed from vector N5KG4P (IgG4-type, human Cgamma4 and Ckappa); also called i-ch; hHvi-chLv/N5KG4P
B12: H chain humanized version b/L chain humanized version b2 antibody (antibody, V domains shown)
VH: B5 VH
VL: B3 VL with G41E, L46S
notes: Expressed from vector N5KG4P (IgG4-type, human Cgamma4 and Ckappa); also called b-b2; hHvb-hLvb2/N5KG4P
B13: H chain humanized version d/L chain chimeric antibody (antibody, V domains shown)
VH: B5 VH with T74E, N77S, T91S, I93V, Y95F
VL: B1 VL
notes: Expressed from vector N5KG4P (IgG4-type, human Cgamma4 and Ckappa); also called d-ch; hHvd-chLv/N5KG4P
B14: H chain humanized version i/L chain humanized version b1 antibody (antibody, V domains shown)
VH: B5 VH with N77S, A79V, Y80F, I93V
VL: B3 VL with Y36F, A43S, L46T
notes: Expressed from vector N5KG4P (IgG4-type, human Cgamma4 and Ckappa); also called i-b1; hHvi-hLvb1/N5KG4P
B15: H chain humanized version e/L chain chimeric antibody (antibody, V domains shown)
VH: B5 VH with T69S, T74E, N77K, T78I, S84N, I93V, Y95F
VL: B1 VL
notes: Expressed from vector N5KG4P (IgG4-type, human Cgamma4 and Ckappa); also called e-ch; hHve-chLv/N5KG4P
B16: H chain chimeric/L chain humanized version c antibody (antibody, V domains shown)
VH: B3 VH
VL: B3 VL with F83I
notes: Expressed from vector N5KG4P (IgG4-type, human Cgamma4 and Ckappa); also called ch-c; chHv-hLvc/N5KG4P
B17: H chain humanized version b/L chain humanized version a antibody (antibody, V domains shown)
VH: B5 VH
VL: B3 VL with Y71F
notes: Expressed from vector N5KG4P (IgG4-type, human Cgamma4 and Ckappa); also called b-a; hHvb-hLva/N5KG4P
B18: H chain humanized version i/L chain humanized version b antibody (antibody, V domains shown)
VH: B5 VH with N77S, A79V, Y80F, I93V
VL: B3 VL
notes: Expressed from vector N5KG4P (IgG4-type, human Cgamma4 and Ckappa); also called hHvi-hLvb/N5KG4P
B19: H chain humanized version i/L chain humanized version b2 antibody (antibody, V domains shown)
VH: B5 VH with N77S, A79V, Y80F, I93V
VL: B3 VL with G41E, L46S
notes: Expressed from vector N5KG4P (IgG4-type, human Cgamma4 and Ckappa); also called i-b2; ib2

molecular target: T1, human tissue factor (TF) on human bladder carcinoma cells J82 (human, UniProt P13726 33-295); test: cell ELISA on fixed J82 cells
T1 construct: whole, on cells; J82 is described as a TF-high expression cell line; also called the antigen; J82 (ATCC HTB-1)
T1 sequence (P13726 33-295): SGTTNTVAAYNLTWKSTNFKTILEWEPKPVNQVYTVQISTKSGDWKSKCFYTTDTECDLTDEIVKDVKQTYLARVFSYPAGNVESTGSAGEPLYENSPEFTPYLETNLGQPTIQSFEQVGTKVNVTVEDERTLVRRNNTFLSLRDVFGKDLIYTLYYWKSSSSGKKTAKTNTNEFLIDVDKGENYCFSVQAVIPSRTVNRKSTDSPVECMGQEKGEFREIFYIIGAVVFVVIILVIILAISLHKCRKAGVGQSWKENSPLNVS

binding result	Binder
binds	B1
binds	B2
binds	B3
binds	B4
binds	B5
binds	B6
binds	B7
binds	B8
binds	B9
binds	B10
binds	B11
binds	B12
binds	B13
binds	B14
binds	B15
binds	B16
binds	B17

molecular target: T2, soluble human TF (human TF amino acids 1-219 with the FLAG peptide at the C-terminal) (human, UniProt P13726 33-251); test: BIACORE; antibody captured on Protein G chip, soluble TF as analyte; mean ± SD, n = 3
T2 construct: Expressed in CHO cells and purified; The entry is the whole soluble TF construct (TF 1-219 plus FLAG peptide M2); The entry may include the signal peptide; also called shTF; soluble TF
T2 sequence (P13726 other isoform, or with tags, fused parts or gaps limits assumed): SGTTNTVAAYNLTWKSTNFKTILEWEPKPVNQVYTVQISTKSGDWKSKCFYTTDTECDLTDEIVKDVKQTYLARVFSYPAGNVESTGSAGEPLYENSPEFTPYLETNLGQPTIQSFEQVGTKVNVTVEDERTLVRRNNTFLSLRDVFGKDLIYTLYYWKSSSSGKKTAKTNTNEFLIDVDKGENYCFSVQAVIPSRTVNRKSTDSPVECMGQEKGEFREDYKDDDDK

Kd [nM]	koff [s⁻¹]	kon [M⁻¹ s⁻¹]	Binder
1.39	0.000649	467000	B18
1.17	0.000635	544000	B19

molecular target: recombinant Protein G (UniProt P19909); test: BIACORE; 10 µl of 72 nM antibody injected over Protein G immobilized on CM5 chip

RU bound [RU]	Binder
1000	B19
